System: DNA gyrase
Assay: single-molecule T7 transcription elongation rate titrated with gyrase
Conditions: multiple biotin (topologically constrained); not given in the held text

Substance “nuoB-N template with multiple biotins (~12 kb)” has a Kd of 100 nM.
